For test [1], the target named is T1, HLA-DR3 (DRB1*0301) (human).
T1 chain 1: not shown
T1 chain 2: not shown
In words: competition binding assay, purified HLA, 125I-labelled probe peptide, gel filtration. The following applies: remark: other sources report otherwise. On the technique in general: SEC sorts molecules by how far they enter the pores of the column.

For test [2] the target is unchanged. The experiment in a line: competition with 125I-labelled probe peptide on purified HLA-DR, gel filtration; IC50 of standard peptide / IC50 of test peptide. The following applies: remark: other sources report otherwise.
The next test addresses T2, HLA-DRB1*0301 (human).
T2 chain 1: not shown
T2 chain 2: not shown
In words: competition with 125I-labeled standard peptide, purified HLA-DR, gel filtration. The following applies: remark: other sources report otherwise.

Test [3] deals with HLA-A*0101 (human). The experiment in a line: competition with 125I-labelled probe peptide for purified HLA-A*0101, gel filtration; relative to standard peptide. The following applies: remark: other sources report otherwise.
Test [4] deals with HLA-A*0201 (human). The experiment in a line: inhibition of 125I-labelled probe peptide binding to purified HLA, gel filtration. The following applies: remark: other sources report otherwise; scale: ratio.
The target in test [5] is T3, HLA-DRB1*0101 (human).
T3 chain 1: not shown
T3 chain 2: not shown
The experiment in a line: inhibition of 125I probe peptide binding to purified HLA-DR, gel filtration. The following applies: remark: other sources report otherwise.

In test [6] the target is T3, HLA-DRB1*0101 (human). In words: competition with 125I probe peptide, purified HLA. The note with it: remark: other sources report otherwise.
The target of test [7] is HLA-A*0101 (human). The experiment in a line: competition with 125I-labelled probe peptide for purified HLA-A*0101, gel filtration; ratio = IC50 of standard peptide 944.02 / IC50 of test peptide. The note with it: remark: other sources report otherwise.
Another test addresses HLA-A*1101 (human). In words: inhibition of 125I-labelled probe peptide binding to purified HLA-A*1101, gel filtration. The following applies: remark: other sources report otherwise.
A further test concerns the target HLA-A*0301 (human). The experiment in a line: inhibition of 125I-labelled probe peptide binding to purified HLA-A*0301, gel filtration; ratio to standard peptide 941.12 ([..], 11 nM). The following applies: remark: other sources report otherwise.
Test [8] has as its target HLA-A*0101 (human). In words: competition with 125I-labelled probe peptide for purified HLA-A*0101, gel filtration. The following applies: remark: other sources report otherwise; scale: ratio.
For test [9], the target named is HLA-A*6802 (human). The experiment in a line: competition with 125I probe peptide for purified HLA. The following applies: remark: other sources report otherwise.
In test [10] the target is T3, HLA-DRB1*0101 (human). The experiment in a line: competition with 125I-labelled standard peptide, purified HLA-DR, gel filtration. The following applies: remark: other sources report otherwise.
Test [11] concerns the target HLA-A*6802 (human). The experiment in a line: competition for purified HLA vs 125I-labelled probe peptide, gel filtration. The note with it: remark: other sources report otherwise.
The target of test [12] is HLA-A*0201 (human). In words: competitive inhibition of 125I-labeled probe peptide binding to purified HLA-A*0201. The note with it: remark: other sources report otherwise.

B1: HER2/neu peptide … (position 342) (peptide)
peptide: CYGLGMEHLREVRAV
Turning to B1, the relative binding ratio (ratio to standard peptide) in test [1] was 0.0083. Moreover, the relative binding ratio in test [2] stood at 0.0083.

B2: HER2/neu DR supermotif exemplary peptide … (position 547) (peptide)
peptide: LQGLPREYVNARHCL
As to B2, the relative binding ratio (ratio (standard IC50 / test IC50)) in the test with HLA-DRB1*0301 (human) is -0.0027.

B3: HER2/neu peptide … (position 547) (peptide)
peptide: LQGLPREYVNARHCL
Take B3: the relative binding ratio (ratio to standard peptide) in [1] is -0.0027.

B4: HER2/neu DR supermotif exemplary peptide … (position 378) (peptide)
peptide: PESFDGDPASNTAPL
As for B4, the relative binding ratio (ratio (standard IC50 / test IC50)) with HLA-DRB1*0301 (human) was -0.0027.

B5: HER2/neu peptide, position 279, 11 amino acids (peptide)
peptide: FESMPNPEGRY
As to B5, the relative binding ratio (IC50 of standard peptide / IC50 of test peptide) (relative binding ratio) with HLA-A*0101 (human) [3] worked out at 0.0049.

B6: HER2/neu DR supermotif exemplary peptide … (position 1109) (peptide)
peptide: LQRYSEDPTVPLPSE
For B6, in the test with HLA-DRB1*0301 (human), the relative binding ratio (ratio (standard IC50 / test IC50)) turned out to be 0.027.

B7: HER2/neu peptide, position 444, 10 amino acids (peptide)
peptide: TLQGLGISWL
Take B7: the relative binding ratio in the test with HLA-A*0201 (human) [4] is 0.0011.

B8: Her2/neu.367 (peptide)
peptide: CKKIFGSLAFLPESF
With B8, the IC50 in the test with HLA-DRB1*0101 (human) [5] and with HLA-DRB1*0101 (human) [6] was 21 nM throughout.

B9: HER2/neu peptide, position 899, 10 amino acids (peptide)
peptide: FTHQSDVWSY
In the case of B9, the figures for the relative binding ratio (IC50 of standard peptide / IC50 of test peptide) (relative binding ratio) with HLA-A*0101 (human) [3] and with HLA-A*1101 (human) were 2.7 and 0.0005, respectively. Further, the relative binding ratio with HLA-A*0101 (human) [7] and with HLA-A*0101 (human) [8] was 2.7 each time. The relative binding ratio (IC50 of standard peptide / IC50 of test peptide) with HLA-A*0301 (human) stood at 0.0003.

B10: Her2/neu.789 … (peptide)
peptide: CLTSTVQLV
In the case of B10, in the test with HLA-A*6802 (human) [9], the half-inhibitory concentration (IC50) (commonly the concentration that inhibits the measured activity by half) turned out to be 8000 nM.

B11: HER2/neu peptide … (position 378) (peptide)
peptide: PESFDGDPASNTAPL
As to B11, the relative binding ratio (ratio to standard peptide) in test [1] was -0.0027.

B12: Her2/neu.783 (peptide)
peptide: SRLLGICLTSTVQLV
As for B12, the IC50 with HLA-DRB1*0101 (human) [10], with HLA-DRB1*0101 (human) [5] and with HLA-DRB1*0101 (human) [6] was 14 nM each time.

B13: HER2/neu peptide, position 851, 9 amino acids (peptide)
peptide: VLVKSPNHV
B13: in the test with HLA-A*0201 (human) [4], the relative binding ratio was 0.0002.

B14: HER2/neu peptide … (position 1109) (peptide)
peptide: LQRYSEDPTVPLPSE
As for B14, in [1], the relative binding ratio (ratio to standard peptide) worked out at 0.027.

B15: HER2/neu peptide … (position 969) (peptide)
peptide: FRELVSEFSRMARDP
Take B15: the relative binding ratio (ratio to standard peptide) in test [1] turned out to be 0.071. Also, the relative binding ratio in [2] came to 0.071.

B16: Her2/neu.59 (peptide)
peptide: NLELTYLPTNASLSF
On to B16, for which the half-maximal inhibitory concentration (IC50) in the test with HLA-DRB1*0101 (human) [5] and in the test with HLA-DRB1*0101 (human) [6] was 11 nM in each case.

B17: Her2/neu.665 … (peptide)
peptide: VVLGVVFGI
B17 displayed a half-maximal inhibitory concentration (IC50) with HLA-A*6802 (human) [9] of 2000 nM.

B18: Her2/neu.789 (peptide)
peptide: CLTSTVQLV
For B18, the results for the IC50 with HLA-A*6802 (human) [11] and with HLA-A*0201 (human) [12] were 8000 nM and less than 500 nM, respectively.

B19: HER2/neu peptide, position 1172, 9 amino acids (peptide)
peptide: TLSPGKNGV
On to B19, for which the relative binding ratio with HLA-A*0201 (human) [4] is 0.0002.

Values taken from patent US20040018971A1.
